Source: patent publication US20170298096A1 (CANIMGUIDE THERAPEUTICS, published 2017)
No end group written: not given here.

Molecular target: T1, His-tagged P3028 (human, also: His-tag, terminus and sequence not given here)
T1 construct: in solution at 0.5 ug/mL over the peptide cards; found with anti-His-tag antibody and rabbit anti-mouse peroxidase (rampo); also called PGE73; not shown: His-tag
T1 peptide: VFDEFKPLVEEPQNLIK
Assay: PEPSCAN chip ELISA, His-P3028 in solution;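 also: score is the raw OD at 405 nm from peroxidase colour with ABTS, imaged by CCD camera before and after staining, with wells showing air bubbles set to zero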

Q: Which “RAMPO Score” value does the source give for KKLWTFFVKLSLFTER [SEQ ID NO 302] here?
A: Its value is 443 rampo score.

Q: For KKLYTFFVKLSLFTER [SEQ ID NO 303], which “RAMPO Score” value is on record?
A: Its value is 422 rampo score.

Q: KKLDCFFVKLSLFTER [SEQ ID NO 304] was tested. Which “RAMPO Score” value did it give?
A: The value was 449 rampo score.

Q: KKLDMFFVKLSLFTER [SEQ ID NO 305] was tested. Which “RAMPO Score” value did it give?
A: Its value is 475 rampo score.

Q: With KKLDNFFVKLSLFTER [SEQ ID NO 306] as the binder, how does the “RAMPO Score” value read?
A: Its value is 436 rampo score.

Q: How did the “RAMPO Score” value turn out when KKLDPFFVKLSLFTER [SEQ ID NO 307] was run?
A: The value was 427 rampo score.

Q: KKLDQFFVKLSLFTER [SEQ ID NO 308] was tested. Which “RAMPO Score” value did it give?
A: Its value is 535 rampo score.

Q: KKLDRFFVKLSLFTER [SEQ ID NO 309] was tested. Which “RAMPO Score” value did it give?
A: The value was 430 rampo score.

Q: KKLDSFFVKLSLFTER [SEQ ID NO 310] was tested. Which “RAMPO Score” value did it give?
A: Its value is 458 rampo score.

Q: KKLDWFFVKLSLFTER [SEQ ID NO 311] was tested. Which “RAMPO Score” value did it give?
A: The value was 418 rampo score.

Q: How did the “RAMPO Score” value turn out when KKLDYFFVKLSLFTER [SEQ ID NO 312] was run?
A: The value was 425 rampo score.

Q: For KKLDTAFVKLSLFTER [SEQ ID NO 313], which “RAMPO Score” value is on record?
A: The value was 575 rampo score.

Q: With KKLDTIFVKLSLFTER [SEQ ID NO 314] as the binder, how does the “RAMPO Score” value read?
A: The value was 466 rampo score.

Q: KKLDTMFVKLSLFTER [SEQ ID NO 315] was tested. Which “RAMPO Score” value did it give?
A: The value was 467 rampo score.

Q: KKLDTNFVKLSLFTER [SEQ ID NO 316] was tested. Which “RAMPO Score” value did it give?
A: The value was 446 rampo score.

Q: Which “RAMPO Score” value does the source give for KKLDTPFVKLSLFTER [SEQ ID NO 317] here?
A: The value was 497 rampo score.

Q: Which “RAMPO Score” value does the source give for KKLDTTFVKLSLFTER [SEQ ID NO 318] here?
A: The value was 481 rampo score.

Q: How did the “RAMPO Score” value turn out when KKLDTVFVKLSLFTER [SEQ ID NO 319] was run?
A: The value was 547 rampo score.

Q: For KKLDTFLVKLSLFTER [SEQ ID NO 320], which “RAMPO Score” value is on record?
A: The value was 517 rampo score.

Q: How did the “RAMPO Score” value turn out when KKLDTFMVKLSLFTER [SEQ ID NO 321] was run?
A: Its value is 712 rampo score.

Q: With KKLDTFQVKLSLFTER [SEQ ID NO 322] as the binder, how does the “RAMPO Score” value read?
A: The value was 511 rampo score.

Q: KKLDTFSVKLSLFTER [SEQ ID NO 323] was tested. Which “RAMPO Score” value did it give?
A: The value was 700 rampo score.

Q: How did the “RAMPO Score” value turn out when KKLDTFTVKLSLFTER [SEQ ID NO 324] was run?
A: Its value is 517 rampo score.

Q: Which “RAMPO Score” value does the source give for KKLDTFVVKLSLFTER [SEQ ID NO 325] here?
A: Its value is 527 rampo score.

Q: With KKLDTFFFKLSLFTER [SEQ ID NO 326] as the binder, how does the “RAMPO Score” value read?
A: The value was 358 rampo score.

Q: How did the “RAMPO Score” value turn out when KKLDTFFGKLSLFTER [SEQ ID NO 327] was run?
A: Its value is 379 rampo score.

Q: KKLDTFFLKLSLFTER [SEQ ID NO 328] was tested. Which “RAMPO Score” value did it give?
A: The value was 411 rampo score.

Q: KKLDTFFPKLSLFTER [SEQ ID NO 329] was tested. Which “RAMPO Score” value did it give?
A: Its value is 456 rampo score.

Q: How did the “RAMPO Score” value turn out when KKLDTFFRKLSLFTER [SEQ ID NO 330] was run?
A: The value was 365 rampo score.

Q: KKLDTFFVRLSLFTER [SEQ ID NO 331] was tested. Which “RAMPO Score” value did it give?
A: The value was 374 rampo score.

Q: With KKLDTFFVKASLFTER [SEQ ID NO 332] as the binder, how does the “RAMPO Score” value read?
A: Its value is 426 rampo score.

Q: How did the “RAMPO Score” value turn out when KKLDTFFVKFSLFTER [SEQ ID NO 333] was run?
A: Its value is 403 rampo score.

Q: KKLDTFFVKGSLFTER [SEQ ID NO 334] was tested. Which “RAMPO Score” value did it give?
A: The value was 495 rampo score.

Q: For KKLDTFFVKISLFTER [SEQ ID NO 335], which “RAMPO Score” value is on record?
A: Its value is 415 rampo score.

Q: Which “RAMPO Score” value does the source give for KKLDTFFVKMSLFTER [SEQ ID NO 336] here?
A: The value was 460 rampo score.

Q: For KKLDTFFVKNSLFTER [SEQ ID NO 337], which “RAMPO Score” value is on record?
A: Its value is 365 rampo score.

Q: Which “RAMPO Score” value does the source give for KKLDTFFVKPSLFTER [SEQ ID NO 338] here?
A: Its value is 436 rampo score.

Q: KKLDTFFVKQSLFTER [SEQ ID NO 339] was tested. Which “RAMPO Score” value did it give?
A: The value was 470 rampo score.

Q: KKLDTFFVKRSLFTER [SEQ ID NO 340] was tested. Which “RAMPO Score” value did it give?
A: Its value is 439 rampo score.

Q: With KKLDTFFVKSSLFTER [SEQ ID NO 341] as the binder, how does the “RAMPO Score” value read?
A: Its value is 351 rampo score.

Q: For KKLDTFFVKTSLFTER [SEQ ID NO 342], which “RAMPO Score” value is on record?
A: The value was 399 rampo score.

Q: Which “RAMPO Score” value does the source give for KKLDTFFVKVSLFTER [SEQ ID NO 343] here?
A: The value was 658 rampo score.

Q: KKLDTFFVKYSLFTER [SEQ ID NO 344] was tested. Which “RAMPO Score” value did it give?
A: The value was 382 rampo score.

Q: How did the “RAMPO Score” value turn out when KKLDTFFVKLHLFTER [SEQ ID NO 345] was run?
A: Its value is 535 rampo score.

Q: Which “RAMPO Score” value does the source give for KKLDTFFVKLMLFTER [SEQ ID NO 346] here?
A: Its value is 744 rampo score.

Q: Which “RAMPO Score” value does the source give for KKLDTFFVKLNLFTER [SEQ ID NO 347] here?
A: Its value is 451 rampo score.

Q: How did the “RAMPO Score” value turn out when KKLDTFFVKLQLFTER [SEQ ID NO 348] was run?
A: The value was 768 rampo score.

Q: KKLDTFFVKLTLFTER [SEQ ID NO 349] was tested. Which “RAMPO Score” value did it give?
A: Its value is 520 rampo score.

Q: With KKLDTFFVKLSAFTER [SEQ ID NO 350] as the binder, how does the “RAMPO Score” value read?
A: The value was 462 rampo score.

Q: With KKLDTFFVKLSHFTER [SEQ ID NO 351] as the binder, how does the “RAMPO Score” value read?
A: The value was 460 rampo score.

Q: KKLDTFFVKLSIFTER [SEQ ID NO 352] was tested. Which “RAMPO Score” value did it give?
A: Its value is 456 rampo score.

Q: Which “RAMPO Score” value does the source give for KKLDTFFVKLSMFTER [SEQ ID NO 353] here?
A: The value was 499 rampo score.

Q: KKLDTFFVKLSNFTER [SEQ ID NO 354] was tested. Which “RAMPO Score” value did it give?
A: Its value is 462 rampo score.

Q: KKLDTFFVKLSQFTER [SEQ ID NO 355] was tested. Which “RAMPO Score” value did it give?
A: The value was 651 rampo score.

Q: With KKLDTFFVKLSRFTER [SEQ ID NO 356] as the binder, how does the “RAMPO Score” value read?
A: Its value is 483 rampo score.

Q: For KKLDTFFVKLSSFTER [SEQ ID NO 357], which “RAMPO Score” value is on record?
A: Its value is 478 rampo score.

Q: For KKLDTFFVKLSTFTER [SEQ ID NO 358], which “RAMPO Score” value is on record?
A: The value was 437 rampo score.

Q: For KKLDTFFVKLSVFTER [SEQ ID NO 359], which “RAMPO Score” value is on record?
A: Its value is 545 rampo score.

Q: Which “RAMPO Score” value does the source give for KKLDTFFVKLSWFTER [SEQ ID NO 360] here?
A: The value was 409 rampo score.

Q: Which “RAMPO Score” value does the source give for KKLDTFFVKLSLATER [SEQ ID NO 361] here?
A: The value was 525 rampo score.

Q: How did the “RAMPO Score” value turn out when KKLDTFFVKLSLCTER [SEQ ID NO 362] was run?
A: Its value is 400 rampo score.

Q: With KKLDTFFVKLSLGTER [SEQ ID NO 363] as the binder, how does the “RAMPO Score” value read?
A: Its value is 531 rampo score.

Q: With KKLDTFFVKLSLHTER [SEQ ID NO 364] as the binder, how does the “RAMPO Score” value read?
A: Its value is 1050 rampo score.

Q: For KKLDTFFVKLSLITER [SEQ ID NO 365], which “RAMPO Score” value is on record?
A: The value was 468 rampo score.

Q: With KKLDTFFVKLSLLTER [SEQ ID NO 366] as the binder, how does the “RAMPO Score” value read?
A: The value was 448 rampo score.

Q: How did the “RAMPO Score” value turn out when KKLDTFFVKLSLMTER [SEQ ID NO 367] was run?
A: Its value is 1190 rampo score.

Q: Which “RAMPO Score” value does the source give for KKLDTFFVKLSLNTER [SEQ ID NO 368] here?
A: Its value is 862 rampo score.

Q: KKLDTFFVKLSLPTER [SEQ ID NO 369] was tested. Which “RAMPO Score” value did it give?
A: Its value is 696 rampo score.

Q: KKLDTFFVKLSLQTER [SEQ ID NO 370] was tested. Which “RAMPO Score” value did it give?
A: The value was 1140 rampo score.

Q: How did the “RAMPO Score” value turn out when KKLDTFFVKLSLRTER [SEQ ID NO 371] was run?
A: The value was 502 rampo score.

Q: How did the “RAMPO Score” value turn out when KKLDTFFVKLSLSTER [SEQ ID NO 372] was run?
A: Its value is 635 rampo score.
